Experiments:
[1] = target: Gli3 D-site peptide (human); assay: peptide or protein array; 17-mer peptides linked by the C-terminus to a nitrocellulose membrane, in duplicate, probed with [35S]-methionine labelled JNK1; PhosphorImager signal normalised to MKK7-D2 = 100%
[2] = target: Neil1 D-site peptide (human); assay: as above
[3] = target: MLL4 D-site peptide (human); assay: as above
[4] = target: 35S-radiolabeled JNK1, P45983-2; assay: peptide array probed with 35S-labeled JNK1, Phosphorimager quantification; conditions: read off a plot

35S-radiolabeled JNK1 (from UniProt P45983-2 1-384) (enzyme)
binding normalised to the MKK7-D2 positive control [1]: 193 % of MKK7-D2
binding normalised to the MKK7-D2 positive control [2]: 198 % of MKK7-D2
binding normalised to the MKK7-D2 positive control [3]: 161 % of MKK7-D2

MKK4 D-site peptide (positive control) MKK4 Mut (alanine substitutions at the critical basic and hydrophobic residues; not printed)
response (% of MKK7-D2 binding) ([4]; parent: est. 520): 28

MKK7-D2 peptide (positive control) MKK7 Mut (alanine substitutions at the critical basic and hydrophobic residues; not printed)
percent of parent (% of MKK7-D2 binding) ([4]; parent: est. 100): 12

From publication PMC2928751
